Patent JP2011512120A (dated 2011)

B1: EV1018 (antibody, V domains shown)
VH: QVQLVESGGGMVQPGMPLRLSCVASGFTFSSYGMHWVRQAPGKGLEWVALTYHHGNRKFYADSVRGRFTISRDNSNNTLYLQMTSLRAEDTAVYFCARESMGAINDNWGQGTLVIVSS
VL: QSALTQETSVSGTVGQKVTLSCIGNNNNIGSHAVGWYQQISRGAPKMVLFGRSPPSGVPDRFSGSKSGTTASLIISGLQPEDEADYYCSTWDSSLSAVVFGGGTKLTVLR
B2: EV1019 (antibody, V domains shown)
VH: QAQLVESGGGVVKPGGSLRLSCISSKFTFSSHAMHWVRQAPGKGLEWVAVIWHDGSKKYYADSVKGRFSVSRDNSKNTLFLQMDSLRAEDTAVYFCGKEWVGGTCDSWGQGTLVIVSS
VL: QPALTQEASVSGTVGQTVTLLCSGNSSNIGSYAVGWYQQISRGAPKIVVFGKSPASGIPDRFSGSKSGTTASLLVSGLQPEDEADYYCSTWDSRLSAVLFGGGTKLTVLR
B3: EV1007 (antibody, V domains shown)
VH: QVHLVQSGSELKKPGASVKVSCKASGYSFSRYGIKWVRQAPGQGLEWMGWINTRSGVPAYAQGFTGRFVFSLDTSVDTAFLEISSLKTEDTGIYYCATRPPRFYDKTEYWEDGFDVWGRGTLVTVSS
VL: QSVLTQPPSASGTPGQSVNISCSGSSSNIGNSYVYWYQQLPGTAPKLLIYRNNRRPSGVPDRFSGSKSDTSASLAISGLRSEDEADYYCATWDDSLSGRLFGGGTKLTVL
B4: EV1003 (antibody, V domains shown)
VH: LVQLVQSEAEVKKPGASVRISCRTSGYIFPTFALHWVRQAPGQSLEWVGSINTASGKTKFSTKFQDRLTLSSNTSATTVYMDLSGLTLDDTALYYCARDRFQNIMATILDVWGQGTLVTVSS
VL: DIVLTQSPGTLSLSPGERVTVSCRASHRVSSNYLAWYQQRPGQSPRLLIFGASNRATGVPDRFSGSGSGTDFALTISRLEPDDFAVYYCQQYASSPVTFGGGTKLEIK

Experiments:
[1] = molecular target: 酵母由来組換えhGM−CSF(Leukine Berlex) (human); assay: SPR (Biacore), antibody captured through protein G on the chip, rhGM-CSF injected
[2] = molecular target: 大腸菌由来組換えhGM−CSF(Peprotech) (human); assay: as above

| Binder | Kd [1] [nM] | Kd [2] [nM] |
| --- | --- | --- |
| B1 | 0.23 | 0.15 |
| B2 | 0.36 | 0.15 |
| B3 | 1.2 | 0.93 |
| B4 | 0.23 | 0.095 |
